# Experimental data taken from patent US20140194367A1, “AGROCYBE AEGERITA LECTIN AAL-2, AND ENCODING GENE THEREOF, PREPARATION METHOD THEREFOR AND APPLICATION THEREOF” (WUHAN ALPHA-OMEGA BIOLOGY TECHNOLOGY CO., LTD(CN), priority 2011, published 2014).
# “Also recorded” adds a separate entry of the source.
# Tests used:
# [1] = Glycochip binding, glycan 181
# Method: (§1) In order to identify the carbohydrate binding activity of Agrocybe aegerita lectin AAL-2, the Agrocybe aegerita lectin AAL-2 is used to detect 465 kinds of carbohydrate by the glycochip technology.
# (§2) Firstly, the purified Agrocybe aegerita lectin AAL-2 (isolated in example 1) is labeled with the biotin and 200 μg/mL AAL-2 incubates the glycochip, then the fluorescein labeled streptavidin combines with the biotin labeled AAL-2. Results are shown in Table 4 (different carbohydrate affinity of AAL-2 arranged from high to low (top of 23 carbohydrates)).
# [2] = Glycochip binding, glycan 178
# Method: as §1, §2
# [3] = Glycochip binding, glycan 94
# Method: as §1, §2
# [4] = Glycochip binding, glycan 88
# Method: as §1, §2
# [5] = Glycochip binding, glycan 182
# Method: as §1, §2
# [6] = Glycochip binding, glycan 171
# Method: as §1, §2
# [7] = Glycochip binding, glycan 308
# Method: as §1, §2
# [8] = Glycochip binding, glycan 338
# Method: as §1, §2
# [9] = Glycochip binding, glycan 407
# Method: as §1, §2
# [10] = Glycochip binding, glycan 172
# Method: as §1, §2
# [11] = Carbohydrate binding specificity by glycochip technology; details: biotin labeled AAL-2, 200 μg/mL
# Method: as §1, §2
# [12] = Glycochip binding, glycan 337
# Method: as §1, §2
# H22 = assay: AAL-2 induced apoptosis of H22 cells, Annexin V/PI flow cytometry; assay type: cell-based, mouse; details: 0.6, 1.2, 2.4 μmol/L; 24 hours and 36 hours; FIG. 6A
# Method: (§3) The experiment detects the killing activity of Agrocybe aegerita lectin AAL-2 (isolated protein in example 1) to the two tumor cell lines (H22, Huh7). H22 and Huh7 cell lines (purchased from ATCC) are cultured in RPMI1640 medium and DMEM medium (contains 10% fetal bovine serum, […] and 100 U/mL penicillin). Different concentrations of Agrocybe aegerita lectin AAL-2 prepared in the example 1 are added into tumor cells (final concentration is 0.6 μmol/L, 1.2 μmol/L, 2.4 μmol/L) and cultured for 24 hours and 36 hours, respectively. The treated cells are digested into single cell, stained with the Annexin V/PI dye and detected by the flow cytometry.
# [13] = Glycochip binding, glycan 180
# Method: as §1, §2
# [14] = Glycochip binding, glycan 336
# Method: as §1, §2
# [15] = Glycochip binding, glycan 309; details: glycan number 309; 200 μg/mL AAL-2
# Method: as §1, §2
# Huh7 = assay: AAL-2 induced apoptosis of Huh7 cells, Annexin V/PI flow cytometry; assay type: cell-based; details: 0.6, 1.2, 2.4 μmol/L; 24 hours and 36 hours; FIG. 6B
# Method: as §3
# [16] = Glycochip binding, glycan 339
# Method: as §1, §2
# [17] = Glycochip binding, glycan 17; details: glycan number 17; 200 μg/mL AAL-2
# Method: as §1, §2
# [18] = Glycochip binding, glycan 177; details: glycan number 177; 200 μg/mL AAL-2
# Method: as §1, §2
# [19] = Glycochip binding, glycan 341
# Method: as §1, §2
# [20] = Glycochip binding, glycan 340
# Method: as §1, §2
# [21] = system: mouse hepatoma cell line H22; assay: Tumor growth of H22 tumor bearing mice, in situ tumour injection; assay type: in vivo, BALB/c mice; details: 5 mg/kg in situ tumour injection every other day, 7 injections
# Method: In this experiment, the BALB/c mice (6-8weeks old, 20 g) are used for the antitumour activity assay. 0.1 ml mouse hepatoma cell line H22 (1×10^7 cells/mL) is subcutaneously inoculated into the oxter area of the BALB/c mice. 7 days after inoculation, inject the Agrocybe aegerita lectin AAL-2 by in situ tumour (protein isolated in example 1) (5 mg/kg, 0.1 ml/mouse). The control group is treated with 0.9% NaCl. Then take the injection every other day, a total of 7 injections, and record the size of the tumor tissue in mice. Tumor size=tumor tissue length L×width W^2/2.
# [22] = Glycochip binding, glycan 176; details: glycan number 176; 200 μg/mL AAL-2
# Method: as §1, §2
# [23] = Glycochip binding, glycan 175
# Method: as §1, §2
# [24] = Glycochip binding, glycan 179
# Method: as §1, §2
# [25] = Glycochip binding, glycan 190; details: glycan number 190; 200 μg/mL AAL-2
# Method: as §1, §2
# [26] = rank of affinity, carbohydrate spectrum of AAL-2
molecule,measurement,setting,value
"AAL-2: new lectin isolated from Agrocybe aegerita total protein by affinity chromatography; amino acid sequence SEQ ID NO: 2; 43 kDa monomer (protein, listed as Agrocybe aegerita) MTSNVITQDLPIPVASRGFADIVGFGLDGVVIGRNAVNLQPFLAVKNFAQNAGGWLTTKHVRLIADTTGTGKGDIVGFGNAGVYVSVNNGKNTFADPPKMVIANFGYDAGGWRVEKHLRYLADIRKIGRADIIGFGEKGVLVSRNNGGLNFGPATLVLKDFGYDAGGWRLDRHLRFLADVTGNGHLDIVGFGDKHVFISRNNGDGTFAPAKSVIDNFCIDAGGWKIGDHPRFVADLTGDGTADIIGCGKAGCWVALNNGGGVFGQVKLVINDFGTDKGWQAAKHPRFIADLTGNGRGDVVGFGNAGVYVALNNGDGTFQSAKLVLKDFGVQQGWTVSKHRRFVVDLTGDGCADIIGFGEKETLVSYNDGKGNFGPVKALTNDFSFSGGKWAPETTVCWMANLDSSRH",average,"[1]; glycan number 181, 200 μg/mL AAL-2",18737
same,order (glycosyl structure affinity of top 18),[1]; [26],8
same,average,"[2]; glycan number 178, 200 μg/mL AAL-2",7339
same,order (glycosyl structure affinity of top 18),[2]; [26],17
same,average,"[3]; glycan number 94, 200 μg/mL AAL-2",11198
same,order (glycosyl structure affinity of top 18),[3]; [26],13
same,average,"[4]; glycan number 88, 200 μg/mL AAL-2",8504
same,order (glycosyl structure affinity of top 18),[4]; [26],15
same,average,"[5]; glycan number 182, 200 μg/mL AAL-2",8464
same,order (glycosyl structure affinity of top 18),[5]; [26],16
same,average,"[6]; glycan number 171, 200 μg/mL AAL-2",24487
same,order (glycosyl structure affinity of top 18),[6]; [26],2
same,average,"[7]; glycan number 308, 200 μg/mL AAL-2",11572
same,order (glycosyl structure affinity of top 18),[7]; [26],12
same,average,"[8]; glycan number 338, 200 μg/mL AAL-2",16141
same,order (glycosyl structure affinity of top 18),[8]; [26],10
same,average,"[9]; glycan number 407, 200 μg/mL AAL-2",6992
same,order (glycosyl structure affinity of top 18),[9]; [26],18
same,average,"[10]; glycan number 172, 200 μg/mL AAL-2",19311
same,order (glycosyl structure affinity of top 18),[10]; [26],6
same,carbohydrate binding specificity,[11],specifically preferentially bind to carbohydrates with N-Acetylglucosamine as the terminal
same,average,"[12]; glycan number 337, 200 μg/mL AAL-2",19030
same,order (glycosyl structure affinity of top 18),[12]; [26],7
same,apoptosis of H22 cells,H22,apoptosis inducing activity depends on the concentration; also recorded: significantly cause two hepatoma cell lines apoptosis
same,average,"[13]; glycan number 180, 200 μg/mL AAL-2",17289
same,order (glycosyl structure affinity of top 18),[13]; [26],9
same,average,"[14]; glycan number 336, 200 μg/mL AAL-2",30519
same,order (glycosyl structure affinity of top 18),[14]; [26],1
same,average,[15],6078
same,apoptosis of Huh7 cells,Huh7,apoptosis inducing activity depends on the concentration; also recorded: significantly cause two hepatoma cell lines apoptosis
same,average,"[16]; glycan number 339, 200 μg/mL AAL-2",20868
same,order (glycosyl structure affinity of top 18),[16]; [26],4
same,average,[17],5331
same,average,[18],5782
same,average,"[19]; glycan number 341, 200 μg/mL AAL-2",11672
same,order (glycosyl structure affinity of top 18),[19]; [26],11
same,average,"[20]; glycan number 340, 200 μg/mL AAL-2",8758
same,order (glycosyl structure affinity of top 18),[20]; [26],14
same,tumor growth (tumor size),[21]; FIG. 7A,significantly inhibited; also recorded: inhibit the tumor growth
same,survival time of tumor bearing mice,[21]; FIG. 7B,prolonged obviously; also recorded: prolong the survival time
same,average,[22],5896
same,average,"[23]; glycan number 175, 200 μg/mL AAL-2",21115
same,order (glycosyl structure affinity of top 18),[23]; [26],3
same,average,"[24]; glycan number 179, 200 μg/mL AAL-2",19530
same,order (glycosyl structure affinity of top 18),[24]; [26],5
same,average,[25],5571
